{
  "source": "paper PMC5564291",
  "about": "(Cell, 2016)",
  "molecules": {"B1": {"name": "SynGAP CC-PBM L-D&K-D mutant (L1202D and K1252D) (domain or fragment, mouse, UniProt J3QQ18 1147-1308, looked up)", "chain": "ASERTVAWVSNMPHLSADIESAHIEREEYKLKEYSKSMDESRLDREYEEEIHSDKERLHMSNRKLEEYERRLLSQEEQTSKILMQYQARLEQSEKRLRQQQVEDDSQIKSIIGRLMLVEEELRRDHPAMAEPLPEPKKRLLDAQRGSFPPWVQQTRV"}},
  "assay_in_all_cases": "ITC",
  "key": {"[1]": {"target": "PSD-95 PDZ3-C (aa R306-S412) (human) (UniProt P78352)"}, "[2]": {"target": "PSD-95 PDZ3 (aa R306–E398) (human) (UniProt P78352)"}, "[3]": {"target": "PSD-95 PSG WT (aa R306-L721) (human, UniProt P78352-3 306-721)"}},
  "data": [
    {"molecule": "N-terminal thioredoxin-tagged last 30 residues of SynGAP (SynGAP PBM) (domain or fragment)", "values": [
      {"measurement": "fold higher affinity than PDZ3", "setting": "[1]", "result": 15, "unit": "fold"},
      {"measurement": "Kd", "setting": "[2]", "result": 27, "unit": "µM"}
    ]},
    {"molecule": "B1", "values": [
      {"measurement": "binding result", "setting": "[3]", "result": "binds"}
    ]}
  ]
}
